Measurements as given in US20190241661A1.
Blank lines part the entries; values can stand above or below the substance they belong to.

Tests used:
[1] = target: CD46, human (human) (UniProt P15529); assay: flow cytometry; directly labelled antibody on siRNA knockdown SK-OV-3 cells
[2] = target: CD46, human (human) (UniProt P15529); assay: flow cytometry; directly labelled antibody on wild-type SK-OV-3 cells
[3] = target: CD59, human (human) (UniProt P13987); assay: flow cytometry; directly labelled antibody on siRNA knockdown SK-OV-3 cells
[4] = target: CD59, human (human) (UniProt P13987); assay: flow cytometry; directly labelled antibody on wild-type SK-OV-3 cells
[5] = target: CD55, human (human) (UniProt P08174); assay: flow cytometry; directly labelled antibody on siRNA knockdown SK-OV-3 cells
[6] = target: CD55, human (human) (UniProt P08174); assay: flow cytometry; directly labelled antibody on wild-type SK-OV-3 cells
[7] = target: CD46, human (human) (UniProt P15529); assay: FACS titration on carcinoma cells, secondary antibody; dilution 1/100, final 1 µg/ml
[8] = target: CD46, human (human) (UniProt P15529); assay: FACS titration on carcinoma cells, secondary antibody; dilution 1/1000, final 0.1 µg/ml
[9] = target: CD46, human (human) (UniProt P15529); assay: FACS titration on carcinoma cells, secondary antibody; dilution 1/10, final 10 µg/ml
[10] = target: CD46, human (human) (UniProt P15529); assay: FACS titration on carcinoma cells, secondary antibody; dilution 1/5000, final 0.02 µg/ml
[11] = target: CD46, human (human) (UniProt P15529); assay: FACS titration on carcinoma cells, secondary antibody; dilution 1/10000, final 0.01 µg/ml
[12] = target: CD46, human (human) (UniProt P15529); assay: FACS titration on carcinoma cells; dilution just sufficient for a saturated staining
[13] = target: CD46, human (human) (UniProt P15529); assay: FACS titration on carcinoma cells, secondary antibody; dilution 1/500, final 0.2 µg/ml
[14] = target: CD46, human (human) (UniProt P15529); assay: FACS titration on carcinoma cells, secondary antibody; dilution 1/10, final 100 µg/ml
[15] = target: CD46, human (human) (UniProt P15529); assay: FACS titration on carcinoma cells, secondary antibody; dilution 1/1000, final 1 µg/ml
[16] = target: CD46, human (human) (UniProt P15529); assay: FACS titration on carcinoma cells, secondary antibody; dilution 1/500, final 2 µg/ml
[17] = target: CD46, human (human) (UniProt P15529); assay: FACS titration on carcinoma cells, secondary antibody; dilution 1/5000, final 0.2 µg/ml
[18] = target: CD46, human (human) (UniProt P15529); assay: FACS titration on carcinoma cells, secondary antibody; dilution 1/100, final 10 µg/ml
[19] = target: CD46, human (human) (UniProt P15529); assay: FACS titration on carcinoma cells, secondary antibody; dilution 1/10000, final 0.1 µg/ml
[20] = target: CD55, human (human) (UniProt P08174); assay: FACS titration on carcinoma cells, secondary antibody; dilution 1/10, final 100 µg/ml
[21] = target: CD55, human (human) (UniProt P08174); assay: FACS titration on carcinoma cells, secondary antibody; dilution 1/1000, final 1 µg/ml
[22] = target: CD55, human (human) (UniProt P08174); assay: FACS titration on carcinoma cells, secondary antibody; dilution 1/500, final 2 µg/ml
[23] = target: CD55, human (human) (UniProt P08174); assay: FACS titration on carcinoma cells; dilution just sufficient for a saturated staining
[24] = target: CD55, human (human) (UniProt P08174); assay: FACS titration on carcinoma cells, secondary antibody; dilution 1/5000, final 0.2 µg/ml
[25] = target: CD55, human (human) (UniProt P08174); assay: FACS titration on carcinoma cells, secondary antibody; dilution 1/100, final 10 µg/ml
[26] = target: CD55, human (human) (UniProt P08174); assay: FACS titration on carcinoma cells, secondary antibody; dilution 1/10000, final 0.1 µg/ml
[27] = target: CD59, human (human) (UniProt P13987); assay: FACS titration on carcinoma cells, secondary antibody; dilution 1/10, final 100 µg/ml
[28] = target: CD59, human (human) (UniProt P13987); assay: FACS titration on carcinoma cells, secondary antibody; dilution 1/1000, final 1 µg/ml
[29] = target: CD59, human (human) (UniProt P13987); assay: FACS titration on carcinoma cells, secondary antibody; dilution 1/500, final 2 µg/ml
[30] = target: CD59, human (human) (UniProt P13987); assay: FACS titration on carcinoma cells; dilution just sufficient for a saturated staining
[31] = target: CD59, human (human) (UniProt P13987); assay: FACS titration on carcinoma cells, secondary antibody; dilution 1/5000, final 0.2 µg/ml
[32] = target: CD59, human (human) (UniProt P13987); assay: FACS titration on carcinoma cells, secondary antibody; dilution 1/100, final 10 µg/ml
[33] = target: CD59, human (human) (UniProt P13987); assay: FACS titration on carcinoma cells, secondary antibody; dilution 1/10000, final 0.1 µg/ml

Chain of UniProt P13987 (P13987 26-102): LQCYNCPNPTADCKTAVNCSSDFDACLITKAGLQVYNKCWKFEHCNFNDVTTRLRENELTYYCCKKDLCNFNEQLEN
Chain of UniProt P15529 (P15529 35-392): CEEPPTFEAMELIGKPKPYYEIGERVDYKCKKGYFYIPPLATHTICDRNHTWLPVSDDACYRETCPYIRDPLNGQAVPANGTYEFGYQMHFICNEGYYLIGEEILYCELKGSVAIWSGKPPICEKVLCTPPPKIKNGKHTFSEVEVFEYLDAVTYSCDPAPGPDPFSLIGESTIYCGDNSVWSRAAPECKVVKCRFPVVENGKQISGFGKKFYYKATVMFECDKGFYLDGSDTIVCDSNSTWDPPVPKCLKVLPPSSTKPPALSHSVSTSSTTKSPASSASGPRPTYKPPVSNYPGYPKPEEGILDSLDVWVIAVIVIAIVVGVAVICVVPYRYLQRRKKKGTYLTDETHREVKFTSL
Chain of UniProt P08174 (P08174 35-353): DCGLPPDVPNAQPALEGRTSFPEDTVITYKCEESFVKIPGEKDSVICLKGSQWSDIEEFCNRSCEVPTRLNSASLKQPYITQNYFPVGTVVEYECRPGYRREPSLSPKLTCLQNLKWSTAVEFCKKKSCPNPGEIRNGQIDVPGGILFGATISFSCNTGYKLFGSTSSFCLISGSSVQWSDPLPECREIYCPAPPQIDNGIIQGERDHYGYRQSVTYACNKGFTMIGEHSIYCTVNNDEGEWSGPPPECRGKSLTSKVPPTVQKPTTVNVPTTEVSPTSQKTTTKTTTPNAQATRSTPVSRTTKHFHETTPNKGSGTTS

Substance: anti-CD46-FITC antibody (BD Pharmingen, Cat. No. 555949)
FACS signal (FITC) [1]: 662 FITC signal
FACS signal (FITC) [2]: 683 FITC signal

Substance: anti-CD59-PE antibody (BD Pharmingen, Cat. No. 555764)
FACS signal (PE) [3]: 649 PE signal
FACS signal (PE) [4]: 1190 PE signal

Substance: anti-human CD46 antibody #386, clone MEM258 (AbD Serotec, MCA2113)
Geom. Mean. FITC (geom. mean FITC) [14]: 87600
Geom. Mean. FITC (geom. mean FITC) [15]: 75200
Geom. Mean. FITC (geom. mean FITC) [16]: 75500
1x conc. (1-time saturating concentration) [12]: 0.2 µg/mL
Geom. Mean. FITC (geom. mean FITC) [17]: 66400
Geom. Mean. FITC (geom. mean FITC) [18]: 79500
Geom. Mean. FITC (geom. mean FITC) [19]: 53500

Substance: anti-human CD55 antibody #387, clone BRIC216 (AbD Serotec, MCA914)
Geom. Mean. FITC (geom. mean FITC) [20]: 32000
Geom. Mean. FITC (geom. mean FITC) [21]: 25100
Geom. Mean. FITC (geom. mean FITC) [22]: 25200
1x conc. (1-time saturating concentration) [23]: 0.1 µg/mL
Geom. Mean. FITC (geom. mean FITC) [24]: 23700
Geom. Mean. FITC (geom. mean FITC) [25]: 26900
Geom. Mean. FITC (geom. mean FITC) [26]: 24100

Substance: anti-human CD59 antibody #385, clone YTH53.1 (AbD Serotec, MCA715G)
Geom. Mean. PE (geom. mean PE) [27]: 55400
Geom. Mean. PE (geom. mean PE) [28]: 60500
Geom. Mean. PE (geom. mean PE) [29]: 62700
1x conc. (1-time saturating concentration) [30]: 0.1 µg/mL
Geom. Mean. PE (geom. mean PE) [31]: 53800
Geom. Mean. PE (geom. mean PE) [32]: 64200
Geom. Mean. PE (geom. mean PE) [33]: 50100

Continued, values first:

FACS signal (APC) [5]: 275 APC signal
FACS signal (APC) [6]: 1450 APC signal
Substance: anti-CD-55-APC antibody (BD Pharmingen, Cat. No. 555696)

Geom. Mean. FITC (geom. mean FITC) [7]: 81800
Geom. Mean. FITC (geom. mean FITC) [8]: 50000
Geom. Mean. FITC (geom. mean FITC) [9]: 84000
Geom. Mean. FITC (geom. mean FITC) [10]: 15800
Geom. Mean. FITC (geom. mean FITC) [11]: 14000
1x conc. (1-time saturating concentration) [12]: 0.3 µg/mL
Geom. Mean. FITC (geom. mean FITC) [13]: 74000
Substance: anti-human CD46 antibody #383, clone M177 (Hycult, HM2103)

Geom. Mean. FITC (geom. mean FITC) [27]: 95200
Geom. Mean. FITC (geom. mean FITC) [28]: 95500
Geom. Mean. FITC (geom. mean FITC) [29]: 95500
1x conc. (1-time saturating concentration) [30]: 0.2 µg/mL
Geom. Mean. FITC (geom. mean FITC) [31]: 94000
Geom. Mean. FITC (geom. mean FITC) [32]: 95500
Geom. Mean. FITC (geom. mean FITC) [33]: 82400
Substance: anti-human CD59 antibody #384, clone MEM43 (antibodies online, ABIN118751)
